Measurements: the MegaScale stability set (Tsuboyama et al. 2023)

B1: EEHEE_rd4_0003 (parent)
chain: KKVTINGVEIKFNNPEEAVKFALELAKRLNLRIEFHGDQIKIE

Variants of: B1
Assay: folding stability dG (cDNA display proteolysis); higher = more stable
Details: PBS, room temperature

Variant	folding stability dG [kcal/mol]
KKVTINGVEIKFNNPEEASKFALELAKRLNLRIEFHGDQIKIE	1.86
KKVTINGVEIKFNNPEEAWKFALELAKRLNLRIEFHGDQIKIE	2.98
KKVTINGVEIKFNNPEEAYKFALELAKRLNLRIEFHGDQIKIE	2.85
KKVTINGVEIKFNNPEEATKFALELAKRLNLRIEFHGDQIKIE	2.22
KKVTINGVEIKFNNPEEARKFALELAKRLNLRIEFHGDQIKIE	2.5
KKVTINGVEIKFNNPEEAVKVALELAKRLNLRIEFHGDQIKIE	1.74
KKVTINGVEIKFNNPEEAVKGALELAKRLNLRIEFHGDQIKIE	1.16
KKVTINGVEIKFNNPEEAVKPALELAKRLNLRIEFHGDQIKIE	0.505
KKVTINGVEIKFNNPEEAVKDALELAKRLNLRIEFHGDQIKIE	0.978
KKVTINGVEIKFNNPEEAVKRALELAKRLNLRIEFHGDQIKIE	1.76
KKVTINGVEIKFNNPEEAVKQALELAKRLNLRIEFHGDQIKIE	1.57
KKVTINGVEIKFNNPEEAVKWALELAKRLNLRIEFHGDQIKIE	2.81
KKVTINGVEIKFNNPEEAVKYALELAKRLNLRIEFHGDQIKIE	2.49
KKVTINGVEIKFNNPEEAVKMALELAKRLNLRIEFHGDQIKIE	1.88
KKVTINGVEIKFNNPEEAVKNALELAKRLNLRIEFHGDQIKIE	1.27
KKVTINGVEIKFNNPEEAVKEALELAKRLNLRIEFHGDQIKIE	1.35
KKVTINGVEIKFNNPEEAVKHALELAKRLNLRIEFHGDQIKIE	1.52
KKVTINGVEIKFNNPEEAVKTALELAKRLNLRIEFHGDQIKIE	1.56
KKVTINGVEIKFNNPEEAVKKALELAKRLNLRIEFHGDQIKIE	1.66
KKVTINGVEIKFNNPEEAVKIALELAKRLNLRIEFHGDQIKIE	2.03
KKVTINGVEIKFNNPEEAVKLALELAKRLNLRIEFHGDQIKIE	2.03
KKVTINGVEIKFNNPEEAVKAALELAKRLNLRIEFHGDQIKIE	1.85
KKVTINGVEIKFNNPEEAVKCALELAKRLNLRIEFHGDQIKIE	3.19
KKVTINGVEIKFNNPEEAVKSALELAKRLNLRIEFHGDQIKIE	1.47

Variant	folding stability dG [kcal/mol]
KKVTINGVEIKFNNPEEAVSFALELAKRLNLRIEFHGDQIKIE	2.24
KKVTINGVEIKFNNPEEAVYFALELAKRLNLRIEFHGDQIKIE	2.47
KKVTINGVEIKFNNPEEAVRFALELAKRLNLRIEFHGDQIKIE	2.81
KKVTINGVEIKFNNPEEAVCFALELAKRLNLRIEFHGDQIKIE	3.78
KKVTINGVEIKFNNPEEAVDFALELAKRLNLRIEFHGDQIKIE	1.93
KKVTINGVEIKFNNPEEAVFFALELAKRLNLRIEFHGDQIKIE	2.51
KKVTINGVEIKFNNPEEAVIFALELAKRLNLRIEFHGDQIKIE	2.38
KKVTINGVEIKFNNPEEAVMFALELAKRLNLRIEFHGDQIKIE	2.44
KKVTINGVEIKFNNPEEAVNFALELAKRLNLRIEFHGDQIKIE	2.13
KKVTINGVEIKFNNPEEAVEFALELAKRLNLRIEFHGDQIKIE	2.28
KKVTINGVEIKFNNPEEAVVFALELAKRLNLRIEFHGDQIKIE	2.2
KKVTINGVEIKFNNPEEAVLFALELAKRLNLRIEFHGDQIKIE	2.49
KKVTINGVEIKFNNPEEAVAFALELAKRLNLRIEFHGDQIKIE	2.64
KKVTINGVEIKFNNPEEAVGFALELAKRLNLRIEFHGDQIKIE	1.77
KKVTINGVEIKFNNPEEAVHFALELAKRLNLRIEFHGDQIKIE	2.2
KKVTINGVEIKFNNPEEAVTFALELAKRLNLRIEFHGDQIKIE	2.24
KKVTINGVEIKFNNPEEAVPFALELAKRLNLRIEFHGDQIKIE	1.69
KKVTINGVEIKFNNPEEAVQFALELAKRLNLRIEFHGDQIKIE	2.44
KKVTINGVEIKFNNPEEAVKFALECAKRLNLRIEFHGDQIKIE	2.82
KKVTINGVEIKFNNPEEAVKFALESAKRLNLRIEFHGDQIKIE	1.11
KKVTINGVEIKFNNPEEAVKFALEHAKRLNLRIEFHGDQIKIE	1.48
KKVTINGVEIKFNNPEEAVKFALEEAKRLNLRIEFHGDQIKIE	1.56
KKVTINGVEIKFNNPEEAVKFALEIAKRLNLRIEFHGDQIKIE	2.53
KKVTINGVEIKFNNPEEAVKFALETAKRLNLRIEFHGDQIKIE	1.7

Variant	folding stability dG [kcal/mol]
KKVTINGVEIKFNNPEEAVKFALEVAKRLNLRIEFHGDQIKIE	2.24
KKVTINGVEIKFNNPEEAVKFALEMAKRLNLRIEFHGDQIKIE	2.46
KKVTINGVEIKFNNPEEAVKFALEAAKRLNLRIEFHGDQIKIE	1.9
KKVTINGVEIKFNNPEEAVKFALERAKRLNLRIEFHGDQIKIE	0.955
KKVTINGVEIKFNNPEEAVKFALEFAKRLNLRIEFHGDQIKIE	2.44
KKVTINGVEIKFNNPEEAVKFALEPAKRLNLRIEFHGDQIKIE	-0.052
KKVTINGVEIKFNNPEEAVKFALEWAKRLNLRIEFHGDQIKIE	2.53
KKVTINGVEIKFNNPEEAVKFALEGAKRLNLRIEFHGDQIKIE	0.776
KKVTINGVEIKFNNPEEAVKFALENAKRLNLRIEFHGDQIKIE	1.32
KKVTINGVEIKFNNPEEAVKFALEKAKRLNLRIEFHGDQIKIE	0.98
KKVTINGVEIKFNNPEEAVKFALEDAKRLNLRIEFHGDQIKIE	0.443
KKVTINGVEIKFNNPEEAVKFALEYAKRLNLRIEFHGDQIKIE	2.72
KKVTINGVEIKFNNPEEAVKFALEQAKRLNLRIEFHGDQIKIE	1.62
KKVTINGVEIKFNNPEEAVKFALKLAKRLNLRIEFHGDQIKIE	2.4
KKVTINGVEIKFNNPEEAVKFALWLAKRLNLRIEFHGDQIKIE	3.15
KKVTINGVEIKFNNPEEAVKFALGLAKRLNLRIEFHGDQIKIE	2.28
KKVTINGVEIKFNNPEEAVKFALHLAKRLNLRIEFHGDQIKIE	2.23
KKVTINGVEIKFNNPEEAVKFALCLAKRLNLRIEFHGDQIKIE	4.19
KKVTINGVEIKFNNPEEAVKFALPLAKRLNLRIEFHGDQIKIE	1.47
KKVTINGVEIKFNNPEEAVKFALALAKRLNLRIEFHGDQIKIE	2.88
KKVTINGVEIKFNNPEEAVKFALVLAKRLNLRIEFHGDQIKIE	2.35
KKVTINGVEIKFNNPEEAVKFALTLAKRLNLRIEFHGDQIKIE	2.43
KKVTINGVEIKFNNPEEAVKFALFLAKRLNLRIEFHGDQIKIE	2.58
KKVTINGVEIKFNNPEEAVKFALMLAKRLNLRIEFHGDQIKIE	2.73

Variant	folding stability dG [kcal/mol]
KKVTINGVEIKFNNPEEAVKFALLLAKRLNLRIEFHGDQIKIE	2.66
KKVTINGVEIKFNNPEEAVKFALSLAKRLNLRIEFHGDQIKIE	2.49
KKVTINGVEIKFNNPEEAVKFALILAKRLNLRIEFHGDQIKIE	2.49
KKVTINGVEIKFNNPEEAVKFALNLAKRLNLRIEFHGDQIKIE	2.35
KKVTINGVEIKFNNPEEAVKFALQLAKRLNLRIEFHGDQIKIE	2.57
KKVTINGVEIKFNNPEEAVKFALYLAKRLNLRIEFHGDQIKIE	2.73
KKVTINGVEIKFNNPEEAVKFALDLAKRLNLRIEFHGDQIKIE	2.46
KKVTINGVEIKFNNPEEAVKFALRLAKRLNLRIEFHGDQIKIE	2.55
KKVTINGVEIKFNNPEEAVKFCLELAKRLNLRIEFHGDQIKIE	2.79
KKVTINGVEIKFNNPEEAVKFMLELAKRLNLRIEFHGDQIKIE	2.59
KKVTINGVEIKFNNPEEAVKFGLELAKRLNLRIEFHGDQIKIE	1.58
KKVTINGVEIKFNNPEEAVKFHLELAKRLNLRIEFHGDQIKIE	1.32
KKVTINGVEIKFNNPEEAVKFTLELAKRLNLRIEFHGDQIKIE	2
KKVTINGVEIKFNNPEEAVKFVLELAKRLNLRIEFHGDQIKIE	2.74
KKVTINGVEIKFNNPEEAVKFYLELAKRLNLRIEFHGDQIKIE	2.39
KKVTINGVEIKFNNPEEAVKFPLELAKRLNLRIEFHGDQIKIE	0.416
KKVTINGVEIKFNNPEEAVKFDLELAKRLNLRIEFHGDQIKIE	0.407
KKVTINGVEIKFNNPEEAVKFILELAKRLNLRIEFHGDQIKIE	3.21
KKVTINGVEIKFNNPEEAVKFSLELAKRLNLRIEFHGDQIKIE	1.59
KKVTINGVEIKFNNPEEAVKFNLELAKRLNLRIEFHGDQIKIE	0.81
KKVTINGVEIKFNNPEEAVKFELELAKRLNLRIEFHGDQIKIE	0.979
KKVTINGVEIKFNNPEEAVKFKLELAKRLNLRIEFHGDQIKIE	1.21
KKVTINGVEIKFNNPEEAVKFQLELAKRLNLRIEFHGDQIKIE	1.22
KKVTINGVEIKFNNPEEAVKFLLELAKRLNLRIEFHGDQIKIE	2.98

Variant	folding stability dG [kcal/mol]
KKVTINGVEIKFNNPEEAVKFFLELAKRLNLRIEFHGDQIKIE	2.74
KKVTINGVEIKFNNPEEAVKFWLELAKRLNLRIEFHGDQIKIE	2.68
KKVTINGVEIKFNNPEEAVKFRLELAKRLNLRIEFHGDQIKIE	1.16
KKVTINGVEIKFNNPEEAVKFAGELAKRLNLRIEFHGDQIKIE	1.43
KKVTINGVEIKFNNPEEAVKFAHELAKRLNLRIEFHGDQIKIE	1.95
KKVTINGVEIKFNNPEEAVKFAFELAKRLNLRIEFHGDQIKIE	2.46
KKVTINGVEIKFNNPEEAVKFANELAKRLNLRIEFHGDQIKIE	1.95
KKVTINGVEIKFNNPEEAVKFAYELAKRLNLRIEFHGDQIKIE	2.43
KKVTINGVEIKFNNPEEAVKFAMELAKRLNLRIEFHGDQIKIE	2.52
KKVTINGVEIKFNNPEEAVKFASELAKRLNLRIEFHGDQIKIE	1.88
KKVTINGVEIKFNNPEEAVKFAVELAKRLNLRIEFHGDQIKIE	2.29
KKVTINGVEIKFNNPEEAVKFAQELAKRLNLRIEFHGDQIKIE	2.13
KKVTINGVEIKFNNPEEAVKFARELAKRLNLRIEFHGDQIKIE	2.19
KKVTINGVEIKFNNPEEAVKFAPELAKRLNLRIEFHGDQIKIE	0.007
KKVTINGVEIKFNNPEEAVKFATELAKRLNLRIEFHGDQIKIE	2.29
KKVTINGVEIKFNNPEEAVKFAAELAKRLNLRIEFHGDQIKIE	1.91
KKVTINGVEIKFNNPEEAVKFADELAKRLNLRIEFHGDQIKIE	1.47
KKVTINGVEIKFNNPEEAVKFAEELAKRLNLRIEFHGDQIKIE	2.12
KKVTINGVEIKFNNPEEAVKFACELAKRLNLRIEFHGDQIKIE	3.18
KKVTINGVEIKFNNPEEAVKFAKELAKRLNLRIEFHGDQIKIE	2.17
KKVTINGVEIKFNNPEEAVKFAWELAKRLNLRIEFHGDQIKIE	2.35
KKVTINGVEIKFNNPEEAVKFAIELAKRLNLRIEFHGDQIKIE	2.57
